The target of assay [1] is human V158 FcγRIIIa, extracellular region with C-terminal 6xHis-tag and GST-tag (human, UniProt P08637 17-208). Description: AlphaScreen competition.
Assay [2] deals with T1, FcγRIIb (human, UniProt P31994 46-217).
T1 chain: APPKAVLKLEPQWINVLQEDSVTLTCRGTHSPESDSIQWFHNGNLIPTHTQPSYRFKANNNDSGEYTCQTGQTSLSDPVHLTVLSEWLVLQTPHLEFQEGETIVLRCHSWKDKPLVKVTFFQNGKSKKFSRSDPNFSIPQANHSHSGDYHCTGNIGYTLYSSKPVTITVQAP
Description: Biacore.

Assay [3] addresses T2, FcγRI (human, UniProt P12314 16-288).
T2 chain: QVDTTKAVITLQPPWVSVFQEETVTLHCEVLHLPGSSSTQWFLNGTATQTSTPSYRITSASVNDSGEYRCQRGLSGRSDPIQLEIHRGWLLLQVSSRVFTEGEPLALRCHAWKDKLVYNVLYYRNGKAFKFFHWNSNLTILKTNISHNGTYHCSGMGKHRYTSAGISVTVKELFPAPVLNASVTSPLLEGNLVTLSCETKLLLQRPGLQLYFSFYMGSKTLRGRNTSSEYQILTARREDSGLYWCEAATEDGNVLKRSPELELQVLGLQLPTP
Description: Biacore.

Assay [4] has as its target S267E/L328Y. Description: Biacore.
Assay [5] concerns the target L328F. Description: Biacore.
Assay [6] addresses P329E. Put plainly: Biacore.
Assay [7] concerns the target H268Q. Description: Biacore.
In assay [8] the target is A327G. Put plainly: Biacore.
Assay [9] addresses A327Q. Put plainly: Biacore.
The target of assay [10] is A327D. Put plainly: Biacore.
Assay [11] addresses S267E/N325L. Put plainly: Biacore.
Assay [12] concerns the target A327N. Put plainly: Biacore.
For assay [13], the target named is H268D. Description: Biacore.
For assay [14], the target named is H268N. Description: Biacore.
Assay [15] has as its target S298D. Description: Biacore.
Assay [16] addresses H268E. Description: Biacore.

Experimental findings from patent publication US20090042291A1 (published 2009) are described below.

B1: alemtuzumab, wild type, expressed in 293T cells (antibody)
chain 1: not shown
chain 2: not shown
In assay [1], B1 yielded an IC50 of 4.6 nM.

B2: alemtuzumab S239D (antibody)
chain 1: not shown
chain 2: not shown
Turning to B2, the IC50 in assay [1] was 0.4 nM.

B3: S267G (antibody)
chain 1: not shown
chain 2: DIVMTQSPATLSLSPGERATLSCRSSKSLQNVNGNTYLYWFQQKPGQSPQLLIYRMSNLNSGVPDRFSGSGSGTEFTLTISSLEPEDFAVYYCMQHLEYPITFGAGTKLEIKRTVAAPSVFIFPPSDEQLKSGTASVVCLLNNFYPREAKVQWKVDNALQSGNSQESVTEQDSKDSTYSLSSTLTLSKADYEKHKVYACEVTHQGLSSPVTKSFNRGEC
As for B3, the Kd in assay [2] is 1450 nM; in assay [3], 0.626 nM.

B4: FcγRIIaR (receptor)
chain: QAAAPPKAVLKLEPPWINVLQEDSVTLTCQGARSPESDSIQWFHNGNLIPTHTQPSYRFKANNNDSGEYTCQTGQTSLSDPVHLTVLSEWLVLQTPHLEFQEGETIMLRCHSWKDKPLVKVTFFQNGKSQKFSRLDPTFSIPQANHSHSGDYHCTGNIGYTLFSSKPVTITVQVPSMGSSSPMG
Consider B4, for which the Kd worked out at 7.06 nM in assay [4]; 166 nM in [5]; 10000 nM in [6]; 544 nM in assay [7]; 2690 nM in assay [8]; 1350 nM in [9]. The Kd in [10] was 536 nM; in assay [11] it was 20.7 nM; in [12], 1410 nM; in assay [13], 205 nM; in assay [14] it was 481 nM; in [15], 592 nM. For the same molecule, binding in assay [16] was characterised by a dissociation constant (Kd) of 269 nM.
